Reference: the RNAGym collection of RNA variant scans (doi:10.1073/pnas.2313332121)
Variants at the floor of the assay were thinned out.

B1: TPR 5TU (parent)
chain: GGAUCUUCUCGAUCUAACAAAAAAGACAAAUCUGCCACAAAGCUUGAGAGCAUCUUCGGAUGCAGAGGCGGCAGCCUUCGGUGGCGCGAUAGCGCCAACGUUCUCAACUAUGACACGCAAAACGCGUGCUCCGUUGAAUGGAGUUUAUCAUG

Variants of: B1
Test: polymerase ribozyme fitness, log enrichment relative to wild type (log ratio); higher = more active; in vitro selection for triplet polymerase activity
In short: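 Input and output libraries were sequenced on Illumina after a single in vitro selection round, run in triplicate on PCR-built, transcribed mutant libraries of each subunit of a heterodimeric triplet polymerase ribozyme. Selection annealed libraries to a biotinylated primer, the partner subunit and triplets, incubated them frozen at −7 °C, then gel-excised extended constructs for streptavidin-bead capture and RT-PCR. Genotypes with ≥10 input reads and ≥1 read per output were kept. Fitness is the logarithm, taken in base 2, of genotype enrichment divided by wild-type enrichment, using inverse-variance-weighted replicate averages.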

Variant	polymerase ribozyme fitness (log ratio)
GGUUCUUCUCGGUCUAACAAACAAGACAAAUCUGCCUCAAAGCUUGGGAGCAUCUUCGGAUGCAGAGGCGGCAGCCUUCGGUGGCGCGAUAGCGCCGACGUUCUCAACUAUGACACGCAAAACGCGUGCUCCGUUGAAUGGAGUUUAUCAUG	-3.5
GGUUCUUCUCGAUCUAACACAAAAGUCAAAUCUGCCACAAAGCUUGAGAGCAUCUUGGGAUGCAGAGGCGGCAGCCUUCGGUGGCGCGAUAGCGCCAACGUUCUCAAUUAUGACACGCAAAACGCGUGCUCCGUUGAAUGGAGUUUAUCAUG	≤ -4.2
GGUUCUUCUCGAUCUAACAUAAAAGACAAAUCUGCCACAAAGCUUGAGACCAUCUUCGGAUGCAGAGGCGGCAGCCUUCGGUGGCGCGAUAGCGCCAACGUUCUCAACUAUGACACGCAAAACGCGUGCUCCGUUGAAUGGAGUUUAUCAUG	≤ -4.2
GGGUCGUCUCGAUCUAACAAAAAAGACAAAUCUGCCACAAAGCUUGAGAGCAUCUUCGGAUGCAGAGGCGGCAGCCUUCGGUGGCGCGAGAGCGCCAACGUUUUCAACUAUGACACGCAAAACGCGUGCUCCGUUGAAUGCAGUUUAUCAUG	≤ -4.2
GGGUCUUCUCGAUCUAACAAAAAAGACAAAUCUGCCACAAAGCUUGAGAGCAUCUCCGGAUGCAGAGGCGGCAGCCUUCGGUGGCGAGAUACCGCCAACGUUCUCAACUAUGACACGCAAAACGCGUGCUCCGUUGAAUGGAGUUUAUCAUG	-2.12
GGGUCAUCUCGAUCUAACAAAAAAGACAAAUCUGCCACUAAGCUUGAGAGCAUCUUCGGAUGCAGAGGCGGCAGCCUUCGGUGUCGCGAUAGCGCCAACGUUCUCAACUAUGACACGCAAAACGCGUGCUCCGAUGAAUGGAGCUUAUCUUG	≤ -4.2
GGGUCUUCUCGAUCUAACAAAAAAGACAAAUCUGCCACAAAGCGUGAGAGCAUCUUAGUAUGCAGAGCCGGCAGCCUUCGGUGGCGGGAUAGCGCCAACGUUCUCAACUAUGACACGCAAAACGCGUGCUCCGUUGAAUGGAGUUUAUCAUG	≤ -4.2
GGUUCUUCUCGAUCUAACAAUAAAGACAAAUCUGCCACAAAGCUUGAGAUCAUCUUCAGAUGCAGAGGCGGCAGCCAUCGGUGGCGCGAUAGCGCCAACUUUCUCAACUAUGACACGCAAAACGCGUGCUCCGUUGGAUGGAGUUUAUCAUG	≤ -4.2
GGUUCUUCUCGAUCUAGCAAAAAAGACAAAUCUGCCACAAAGCUUGAGCGCAUCUUCGGAUGCAGAGGCGGCAGCCUUCGGUGGCGCGAUAGAGCCAACGUUCACAACUAUGACACGCCAAACGCGUGCUCUGUUGAAUGCAGUGUAUCAUG	≤ -4.2
GGUUCUUCUCGAUCUAACACAAAAGACAAAUCUGCCACAAAGCUUGAGAGCAUCUUCCGAUGCAGAGGCGGCUGCCUUCGAUGGCGCGAUAGCGCCAACGUUCUCAACUAUGACACGCAAAACGCGUGCUCCGUUGAAUGGAGUUUCUCAUG	≤ -4.2
GGGACUUCUCGAUCUAACAAAAAAGACAAAUCUGCCACAAAGCUUGAGAGCAUUUUCGGAUGCAGAGGCGGCAGCCUUCGGUGGCGCGAUAGCGCCAACGUGCUCAACUAUGACACGCAAAACGGGUGCUCCGUUGAAUGGAGUUUAUCAUG	-3.99
GGUUCUUCUCGAUCUACCAAAAAAGACAAAUCUGCCACAAAGCUUGAGAGCAUCUUCGGAUGCAGAGGCGGCAGCCUUCGGUGGCGCGAUAGCCCCAACGUUCUCAACUAUGACACGCAAAACGCGUGCUCCGUUGAAUGGAGUUUAUCAUG	-0.825
GGUUCUUCUCGAUCUAACUAAAAAGACAAAUCUGCCACAAAGCUUGAGAGCAUCUUUGGAUUCAGAGGUGGCAGCCUUCGGUGGUGCGAUAGCGCCAAGGUUCUCAACUAUGACACGCAAAACGCGUGCCCCGUUUAAUGGAGUUGAUCAUG	≤ -4.2
GGUUCUUCUCGAUCUAACAACAAAGACAAAUCUGCCACAAAGCUUGAGAGCAUCUUCGGAUGCAGAGGAGGCAGCAUUCGGUGGCACGGUAGCGCCAACGUUCUCAACUAUGACACGCAAAGCGCGUGCUCCGUUGAAUGGAGUUUAUCAUG	≤ -4.2
GGGACUUCUCGAUCUAACAAAAAAGACAAAUCUGCCACAAAGCUUGAGAGCACCUUCGUAAGCAGAGGCGCCAGCCUUCGGUGGAGCGAUAGCGCCAACGUUCUCAACUAUGACACGCAAAACGCGUGCUCCGUUGAAUGGAGUUUAUCAUG	≤ -4.2
GGUUCUUCUCGAUCUAACAUAAAAGACAAAUCUGCCACAAGGCUUGAGGGCAUCUUCGGAUGCUGAGGCGGCAGCCUUCGGUGGCGCGAUAGCGCCAACGUUCUCAAGUAUGACACGCAAAACGCGUGCUCCGUUGAAUGGAGUUUAUCAUG	≤ -4.2
GGUUCUUCUCGAUCUUACAAAAAAGACAAAUCUGCCACAAAGCUUGAGAGCAUUAUCGGAUGCAGAGGCGGCAGCCUUCGGUGGUGCGAUAGCGCCACUGUUCUCAACUAUGACACGCAAAACGCGUGGUCCGUUGAAUGGAGUUUAUCAUU	≤ -4.2
GGGUCUUCUCGAGCUAACAAUAAAGACAAAUCUGCCACAUAGCUUGAGAGCAUCUUCGGAUGCAGAGGAGGCAGCCUUGAGUUGUUCGAUAGCGCCAACGUUCUCAACUAUGACACGCAAAACGCGUGCUCCGUUCAAUGGAGUUUAUCAUG	≤ -4.2
GGUUCUUCUCGAUCUAACAAACAAGACAAAUCUGCCACAAAGCUUGAGAGCAUCUUCGGAUGCAGAGGCGGCAGCCUUCGGUGGCGAGAUAUCGCCAACGUUCUCAACUAUGACACGCAAAACGCGUGCUCCGUUGAAUGGAGUUUAUCAUG	-0.18

Variant	polymerase ribozyme fitness (log ratio)
GGGGCUUCUCGAUCAAACAAAAAAGAUAAAUCUGCCAAAAAGCUUGAGAGCAUCUUGGGAUGCAGAGGCGGCAGCCUUCGGUGGCGCGAUAACGCCAACGUUCUCAACUAUGACACGCUAAACGCGUGCUCCGUUGAAUGGAGUUUAUCAUG	≤ -4.2
GGUUCUUCUCGAUCUACCAAAAAAGACAAAUCUGCCACAAAGCUUGAGAGCAUCUUCGGAUGCAGAGGCGGCAGCCUUCGGUGGCGCGUUAGCGCCAACGUUCUCAACUAUGACACGCAAAACGCGUGCUCUGUUGAAUGGAGUUUAUCAUG	-1.09
GGGUCUUCUCGAUCUAACAAAAAAGACAAAUCUGCCACAAAGCUUGAGAGCAUCUUCGGAUGCAGAGGCGGCAGCCUUCGGUGGCGCGAUAGCUCCAACGUUUUCAACUAUGACACGCAAAACGCGCGCUCCGCUAAAUGGAGUUUAUCAUG	-3.9
GGUUCUUCUCGAUCUCACAAAAAAGACAAAUCUGCCACAAAGCUUGAGAGCUUCUUUGGAUGCAGAGGCGGCAGCUUUCGGUGGCUCGAUAGCGCCAACGUUCUCAACUAUGACACGCAAAACGCGUGCUCCGUUGAAUGGAGUUUAUCAUG	≤ -4.2
GGGUCUUCUCGAUCAAACAAAAAAGACAAAUCUGCCACAAAGCUUGAGAGCAUCUUCGGAUGCAGAGGCGGCAGCCUUCGGUGGCGCGACAGCUCCAACGUUCUCAACUAUGACACGCAAAACAUGUGCUCCGUUGAAUGGAGUUUAUCAUG	≤ -4.2
GGUUCUUCUCGAUCUCACAAAAAAGACAAAUCUGCCACAAAGCUUGAGAGCAUCUUCGGGUGCAGAGGCGGCAGCCUUCGGUGGCGAGAUAGCGCCAACGUGCUCAAGUAUGACACGCAAAACGCGAGCUCCGUUGAAUGGAGUGUAUCAUG	≤ -4.2
GGGUCUGCUCGAUCUAACAAAAAAGACAAAUCUGCCACAAAGCUUAUGAGUAUCUUCGGAUGCAGAGGCGGCAGCCUUCGGUGGCGCGAUAGCCCCAACGUUCUCAACUAUGACACGCAAAACGUGUGCUCCGUUGAAUGGAAUUUAUCAUG	≤ -4.2
GGGUCUUCUCGAGCUAACAAAAAAGACAAAUCUGCCACAAAGCUUGAGAGCAUCUUCGGAUGCAGAGGCGGCAGCCUUCGGUGGCGCGAUAGCGCCAACGUUCUCAACUAUGACACGCAAAACGCGUGCUCCGUUGAAUGGAGCUUAUCAUG	0.104
GGUUCUUCUCGAUCUAACAAACAAGACAAACCUGCCACAAAGCUUGAGAGCAUCUUCGGAAGCAGAGGCGGCAGCCUUCGGUGGCGCGAUAGCGCCAACGUUCUCAACUAUGACACGCAAAACGCGUGCUCCGUUGAAUGGAGUUUAUCAUG	-2.45
GGGUCUGCUCGAUCUAACAAAAAAGACAAAUCUGCCAUAGAGCUUGAGAGCAUGUUCGGAUGCAGAGGCGGCAGCCUUCGGUGGCGCGAUAGCGUCAACGUUCUCAACUAUGACACGCAAAACGCGUGCUCCGUUGAAUGGAGUAUAUCAUG	≤ -4.2
GGUUCUUCUCGAUCUAUCAAAAAAGACAAAUCUGCCACAAAGCUUGAGAGCAUCUACGGAUGCAGAGGCGGCAGCCUUCGGUUGCGCGAUAGGGCGAACGUUCUCAACUAUGACACGCAAAACGGGUGCUCCGUUCAAUGGAGUUUAUCAUG	≤ -4.2
GGGUCUUCGCGAUCUGACAACAAAGACAAAUCUGCCACAAAGCUUGAGAGCAUCUUCGGAUGCAGAGGCGGCAGCCUUCGGUGACGCGAUAGCGCCAACGUUCUCAACUAUGACACGCAAAACGCGUGCUCCCUUGAAUGAAGUUUAUCAUG	≤ -4.2
GGGUCUUCUCGAUCUAACAAAAAAGACAAAUCUGCCACAAAGCUUGAGAGCAUCUUCGGAUGCAGAGGCGGCAGCCUUCGGGGGCGCGAUAGCGCUAACGUUCUCAACUAUGACACGCAAAACGCGUGCUCCGUUGAAUGGAGUUUAACAUG	-4.17
GGUUCUUCUCGAUCUAACAAAGAAGACAAAUCUGCCACAAAGUUUGAGAGCAUCUUCGGAUGCAGAGACGGCAGCCUGCGGUGGCGCGAUAACGCCAACGUUCUCAUCUGUGGCACGCAAAACGCGUGCUCCGUUGAAUGGAGUUUAUCACG	≤ -4.2
GGGUCUUCUCGAUCUAACAAAAAAGACAAAGCUGCCACAAAGCUUGAGAACAUCUUCGGAUGCAGAGGCGGCAGCCUUCGGUGGCGCGAUAGCGGCAACGUUCUCAACUAUGACACGGAAAACGCGUGCUCCGUUGACUGGAGUUAAUCAUU	≤ -4.2
GGUUCUUCUCGGUCUAACAAAAAAGACAAAUCUGCCACAAAGCUUGAGAGCAUCUUCGGAUGCAGAGGCGGCAGCCUUCGGUGGCGGGAUAGCGCCAACGUUCUCAACUAUGACACGCAAAACGCGUGCUCCGUUGAAUGGAGUUUAUCAUG	-4.02
GGGUCUUCUCGAACUAACAAAAAAGACAAAUCUGCCACAAAGCUUGAGAGCAUCUACGGAUGCAGAGGCGGCAGCCUUCGGUGGCGCGAUAGCGCAAACGUUCUCAACUAUGACACGCAAAACGCGUGCUCCGUUGAGUGGAGUUUAUCAUG	≤ -4.2
GGGUCUUCUCGACCUAACAAAAAAGACAAAUCUGCCACAAAGCUUGAGAGCAUCUUCGGAUGCAGAGGCGGCAGCCUUCGGUGGCGCGAUAGCGCCAUCGUUCUCAUCUAUGACACGCAAAACGCGUGCUCCGUUGAAUGGAGUUUAUCAUG	-4
GGGGCUUCUCGAUCUAACAAAAAAGACAAAUUUGCCACAAAGCUUGAGAGCAUCUACGGAUGCAGAGGCGGCAACCUUCGAUGGCGCGAUAGCGCCAACGUUCUCAACUAUGACACGCAGAACGCGUGCUCCGUUGAAUGGAGUUUAUCAUG	-0.184
